Assay: RP-HPLC chromatogram of recombinant hirudin HV1 in water (FIG. 1)
Type: physicochemical
Settings: 1 mg/ml hirudin in water
Protocol: RP-HPLC method: A LiChroCART 125-4 column is used (Merck LiChrospher 100 RP-18 5pm). Solvent A is 0.5% ammoniumacetate in acetonitrile/water (10:90), (v:v); solvent B is 0.5% ammoniumacetate in acetonitrile/water (25:75). The elution is performed at 45° C. using a flow rate of 0.5 ml/min. The binary elution is a linear gradient starting at time zero with 23% solvent B and reaching 46% solvent B after 24 minutes. After 2 min at 70% solvent B the column is equilibrated for 7 rain at 23% solvent B.
A typical chromatogram of recombinant hirudin HV1 (CGP 39393) in water using the RP-HPLC (1 mg/ml hirudin) method is shown in FIG. 1.
In FIG. 1, the relative area of the main peak is 95.15%. Storage of hirudin in water at room temperature results in an increase of by products with time. […] The changes which occur can be accelerated by using temperature stress experiments i.e. by storage at elevated temperatures.

## desulphatohirudin HV1 [CGP 39393]
  relative area of the main peak: 95.15%

Source: patent US5733874A, “Stable dry powders” (Novartis Corp., priority 1994, dated 1998)
